Assay [1] addresses T1, human IL-2Rβγ receptor on primary human T-cells and NK-cells (PBMCs) (human, UniProt P14784 27-551; P31785 23-369).
T1 construct: Endogenous receptor on primary cells; also called dimeric IL-2Rβγ receptor complex
T1 sequence 1: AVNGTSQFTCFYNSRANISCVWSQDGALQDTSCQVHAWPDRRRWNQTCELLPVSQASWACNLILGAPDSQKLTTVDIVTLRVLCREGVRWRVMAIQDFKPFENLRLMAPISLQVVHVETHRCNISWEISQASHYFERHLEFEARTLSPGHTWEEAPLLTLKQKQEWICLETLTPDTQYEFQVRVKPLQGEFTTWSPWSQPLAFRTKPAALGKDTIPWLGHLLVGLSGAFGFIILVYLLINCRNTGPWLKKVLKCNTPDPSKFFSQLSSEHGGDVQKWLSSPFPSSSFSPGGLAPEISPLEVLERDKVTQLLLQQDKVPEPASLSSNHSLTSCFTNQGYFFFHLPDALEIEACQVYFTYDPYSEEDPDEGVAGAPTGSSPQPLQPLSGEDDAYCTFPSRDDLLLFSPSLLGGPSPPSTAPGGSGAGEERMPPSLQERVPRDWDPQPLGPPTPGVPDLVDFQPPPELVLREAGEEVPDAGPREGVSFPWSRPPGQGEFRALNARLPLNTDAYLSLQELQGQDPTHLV
T1 sequence 2: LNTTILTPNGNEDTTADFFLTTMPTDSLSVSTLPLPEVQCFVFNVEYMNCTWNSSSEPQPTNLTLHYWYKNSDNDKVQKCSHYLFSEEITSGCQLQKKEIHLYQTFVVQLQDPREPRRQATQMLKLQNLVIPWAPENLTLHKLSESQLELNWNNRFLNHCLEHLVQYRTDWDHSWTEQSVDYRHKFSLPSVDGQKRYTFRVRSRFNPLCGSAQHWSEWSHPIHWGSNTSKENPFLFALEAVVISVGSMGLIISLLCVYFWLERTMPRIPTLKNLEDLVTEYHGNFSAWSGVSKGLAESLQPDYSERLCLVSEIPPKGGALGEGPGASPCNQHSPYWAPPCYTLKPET
The assay can be described thus: flow cytometry cell binding on human CD4+ T-cells (PBMC), gMFI as fold over secondary antibody only. On the procedure: All washes and dilutions of cells, antibodies, and reagents were performed using flow buffer (1X PBS, 1% BSA, 0.1% NaN3, pH 7.4). Staining was performed in a round-bottom 96-well plate (Corning) seeded at 100,000 cells/well, and all incubations were performed at 4° C. or on ice. […] The cells were washed twice with 200 μL flow buffer. The cells were then incubated for 30 minutes with detection antibody (Goat F(ab′)2 Anti-Human IgG-PE, Southern Biotech) at 0.625 μg/mL in flow buffer. Following 2 more washes, the cells were resuspended in a final volume of 150 μL of flow buffer. The cells were analyzed on a BD FACSCelesta or a Guava easyCyte 8-HT flow cytometer. At least 3000 events were collected, and PE geometric mean fluorescence intensity was plotted as a fold over background (cells incubated with secondary detection antibody only). In some secondary screens involving human or cynomolgus PBMCs, an additional CD4 antibody (BioLegend) and/or CD8 antibody (BioLegend) was included to further characterize cell binding.

The target of another assay is T2, IL2RB, Human.
T2 construct: Same protein as m17, but here as recombinant protein in solution, not on CHO cells; also called human IL-2RB (AcroBiosystems); IL-2Rβ
T2 receptor chain: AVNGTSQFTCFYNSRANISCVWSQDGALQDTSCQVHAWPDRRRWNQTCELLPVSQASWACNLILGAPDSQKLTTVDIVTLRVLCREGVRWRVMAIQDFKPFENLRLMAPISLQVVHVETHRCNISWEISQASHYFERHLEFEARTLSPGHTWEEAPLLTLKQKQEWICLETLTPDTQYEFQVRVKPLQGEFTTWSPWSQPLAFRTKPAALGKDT
The experiment in a line: biolayer interferometry (Octet Qk384), antibody captured on anti-human Fc (AHC) sensors, antigen 7.8-500 nM in solution, 1:1 fit, KD = kd/ka. Here is the method: (§1) All kinetics measurement experiments were performed on a ForteBio Octet Qk384 instrument using anti-human Fc capture (AHC, 18-5005) sensors. The bispecific heavy chain-only antibodies and antigens were diluted to final concentrations in Kinetics buffer (0.02% Tween20, 0.1% BSA, 0.05% sodium azide, 1X PBS). Kinetics measurements were against the following antigens: human IL-2RB (AcroBiosystems), human TL-2RG (AcroBiosystems), cynomolgus IL-2RB (Sino Biological), cynomolgus IL-2RG (expressed and purified in house using ExpiCHO expression system followed by Ni-NTA his-tag purification). The antibodies were loaded on the AHC sensors at 5 μg/mL for maximum loading. Following a short baseline in Kinetics buffer, the sensors were exposed to a series of analyte concentrations (7.8 nM to 500 nM) for association step and background subtraction was used to correct for sensor drifting. Dissociation was monitored in Kinetics buffer. The capture surfaces were regenerated for 60s. All experiments were performed with shaking at 1000 rpm. ForteBio's data analysis software was used to fit the data to a 1:1 binding model to extract an association rate and dissociation rate. The KD was calculated using the ratio kd/ka.

Assay [2] addresses T3, human IL-2Rγ (recombinant protein and on cells) (human, UniProt P31785 23-262, limits assumed).
T3 construct: recombinant protein and of cells together; also called IL2RG; CD132
T3 sequence: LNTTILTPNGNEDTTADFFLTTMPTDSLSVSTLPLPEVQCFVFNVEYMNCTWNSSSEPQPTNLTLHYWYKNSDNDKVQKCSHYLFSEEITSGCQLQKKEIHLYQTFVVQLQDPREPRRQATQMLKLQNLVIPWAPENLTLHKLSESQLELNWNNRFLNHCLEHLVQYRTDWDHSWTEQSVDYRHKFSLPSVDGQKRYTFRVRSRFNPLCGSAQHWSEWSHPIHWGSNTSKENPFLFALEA
Described as above. Here is the method:
as §1

Assay [3] has as its target T4, cynomolgus IL-2Rγ (recombinant protein and on cells) (cynomolgus, UniProt A0A2K5VGJ6 23-254).
T4 construct: also called cynomolgus IL-2RG
T4 sequence: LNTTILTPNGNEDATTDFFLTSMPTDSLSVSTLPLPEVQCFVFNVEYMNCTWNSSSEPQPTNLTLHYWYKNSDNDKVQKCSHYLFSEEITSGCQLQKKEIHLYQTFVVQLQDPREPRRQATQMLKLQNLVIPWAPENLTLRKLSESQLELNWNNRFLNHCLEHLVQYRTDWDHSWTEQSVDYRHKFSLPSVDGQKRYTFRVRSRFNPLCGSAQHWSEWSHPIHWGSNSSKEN
The assay is described as above. On the procedure: as §1

B1: BsAb-2 (IL2RB_F09G**IL2RG_F16B) (bispecific antibody, human IgG4, V domains shown)
V domain 1: QVQLQESGPGLVKSSETLSLTCTVSGGSISSSDWWSWVRQPPGKGLEWIGEIDHSGSTNYNPSLMSRVTISVDKSKNQFSLKLSSVTAADTAVYFCARGSWELTDAFDIRGQGTLVTVSS
V domain 2: QVQLVESGGGLVKPGGSLRLSCAASGFTFSDYYMSWIRQAPGKGLEWVSYISSSGSTIYYADSVKGRFTISRDNAKNSLYLQMNSLRAEDTAVYYCARGDAVSITGDYRGQGTLVTVSS
notes: Heavy chain-only bispecific on silenced, stabilised human IgG4 Fc, knobs-into-holes, no light chains; not shown: C-terminal His-tag on the knob chain
Turning to B1, in assay [1], the “EC50 (read off the curve)” value was ~4 nM. Also, the Kd with IL2RB, Human was 93.4 nM; in assay [2], 17.1 nM; in assay [3], 50.2 nM.

B2: BsAb-6 (IL2RB_F18E**IL2RG_F16A) (bispecific antibody, human IgG4, V domains shown)
V domain 1: QVQLVESGGGVVQPGRSLRLSCAASGFTFSSYGMHWVRQAPGKEREWVAVISYDGSNKYYTDSVKGRFTISRDNSKNTLYLEMNSLRAEDTAVYYCARDLDYDVLTGDPVGGFDIWGQGTLVTVSS
V domain 2: QVQLVESGGGLVKPGGSLRLSCAASGFTFSDYYMSWIRQAPGKGLEWVSSISSSGDTIYYADSVQGRFTLSRDNAENSLFLQMNSLRAEDTAVYYCARGDAVSITGDYRGQGTLVTVSS
notes: as for B1
Turning to B2, the “EC50 (read off the curve)” value in assay [1] is ~7 nM. Besides, the Kd with IL2RB, Human was 53.8 nM; in assay [2] it was 1.88 nM; in assay [3], 5.42 nM.

B3: BsAb-4 (IL2RB_F09G**IL2RG_F18A) (bispecific antibody, human IgG4, V domains shown)
V domain 1: QVQLQESGPGLVKSSETLSLTCTVSGGSISSSDWWSWVRQPPGKGLEWIGEIDHSGSTNYNPSLMSRVTISVDKSKNQFSLKLSSVTAADTAVYFCARGSWELTDAFDIRGQGTLVTVSS
V domain 2: QVQLVESGGDLVKPGGSLRLSCAASGFTFSDYYMSWLRQAPGKELEWVSHISSSGTTTYYADSVEGRFTITRDNAKNSLYLQMNSLRAEDTAVYYCARGAAVAPGFDSRGQGTLVTVSS
notes: as for B1
With B3, the “EC50 (read off the curve)” value in assay [1] was ~4 nM. Moreover, the Kd stood at 82.4 nM with IL2RB, Human; 2.93 nM in assay [2]; 5.81 nM in assay [3].

B4: BsAb-3 (IL2RB_F09G**IL2RG_F16C) (bispecific antibody, human IgG4, V domains shown)
V domain 1: QVQLQESGPGLVKSSETLSLTCTVSGGSISSSDWWSWVRQPPGKGLEWIGEIDHSGSTNYNPSLMSRVTISVDKSKNQFSLKLSSVTAADTAVYFCARGSWELTDAFDIRGQGTLVTVSS
V domain 2: QVQLVESGGGLVKPGGSLRLSCAASGFTFNDYYMSWIRQAPGKGLEWVSHISSSGSTIYYADSVKGRFTVSRDNANNSLYLQMHSLRAEDTAVYYCARGDAVSITGDYRGQGTLVTVSS
notes: as for B1
B4: in assay [1], the “EC50 (read off the curve)” value was ~7 nM. The Kd with IL2RB, Human came out at 96.7 nM; in assay [2], 1.43 nM; in assay [3] it was 3.58 nM.

B5: BsAb-1 (IL2RB_F09C**IL2RG_F16A) (bispecific antibody, human IgG4, V domains shown)
V domain 1: QVQLQESGPGLVKPSGTLSLTCAVSGGSISSSDWWSWVRQPPGKGLEWIGEIDHSGSTNYNPSLMSRVTISVDKSKNQFSLKLSSVTAADTAVYFCGRGSWELSDAFDIRGQGTLVTVSS
V domain 2: QVQLVESGGGLVKPGGSLRLSCAASGFTFSDYYMSWIRQAPGKGLEWVSSISSSGDTIYYADSVQGRFTLSRDNAENSLFLQMNSLRAEDTAVYYCARGDAVSITGDYRGQGTLVTVSS
notes: as for B1
As for B5, the 50% effective concentration (EC50 (read off the curve)) in assay [1] was ~7 nM. Also, the Kd is 18.5 nM with IL2RB, Human; 1.79 nM in assay [2]; 4.87 nM in assay [3].

B6: BsAb-5 (IL2RB_F09K**IL2RG_F16B) (bispecific antibody, human IgG4, V domains shown)
V domain 1: QVQLQESSPGLVKPSETLSLTCTVSGGSISSSNWWSWVRQPPGKGLEWIGEISHSGSTNYNPSLKSRVTISVDKSKNQFSLRLSSVTAADTAVYFCGRGSWELTDAFDIRGQGTLVTVSS
V domain 2: QVQLVESGGGLVKPGGSLRLSCAASGFTFSDYYMSWIRQAPGKGLEWVSYISSSGSTIYYADSVKGRFTISRDNAKNSLYLQMNSLRAEDTAVYYCARGDAVSITGDYRGQGTLVTVSS
notes: as for B1
As to B6, in assay [1], the binding result is reported as “binds”. The dissociation constant Kd turned out to be 182 nM with IL2RB, Human; 20.1 nM in assay [2]; 41.5 nM in assay [3].
